Laboratory results: patent publication US20190112365A1 (EISAI R AND D MANAGEMENT, published 2019)

Key:
[1] = target: T1, HVPGG site of Tau (15-mer array peptides containing HVPGG) (human); assay: peptide microarray; HVPGG site of the second repeat region against HQPGG (repeat region 1)
T1 peptide: HVPGG
Protocol: (§1) The diluted antibody was incubated on the chip for 16 hours at 4° C. with shaking at 140 rpm. Primary antibody was removed and the chip was washed in PBS (pH 7.4)/0.05% Tween 20. Wash buffer was removed and goat anti-mouse IgG (H+L) DyLight™680 (1:5000) and an anti-HA tag DyLight™ 800 (1:2000) in the same buffer as the primary antibody was then incubated for 45 minutes at room temperature on the chip. Detection antibody was removed and the chip was washed once again as previously. Fluorescence images were acquired on the LI-COR Odyssey™ Imaging System and the microarray data was finally analyzed using the PepSlide™ Analyser software.

[2] = target: T2, P301S mutant human 2N4R Tau, recombinant full length (human, UniProt P10636 2-758); assay: SPR; KD on P301S-2N4R Tau against KD on wild type 2N4R Tau
T2 construct: The equivalent P301S mutant of 2N4R Tau; also called P301S-2N4R Tau; P301S Tau
T2 sequence (P10636 other isoform, or with tags, fused parts or gaps P301S P301S limits assumed): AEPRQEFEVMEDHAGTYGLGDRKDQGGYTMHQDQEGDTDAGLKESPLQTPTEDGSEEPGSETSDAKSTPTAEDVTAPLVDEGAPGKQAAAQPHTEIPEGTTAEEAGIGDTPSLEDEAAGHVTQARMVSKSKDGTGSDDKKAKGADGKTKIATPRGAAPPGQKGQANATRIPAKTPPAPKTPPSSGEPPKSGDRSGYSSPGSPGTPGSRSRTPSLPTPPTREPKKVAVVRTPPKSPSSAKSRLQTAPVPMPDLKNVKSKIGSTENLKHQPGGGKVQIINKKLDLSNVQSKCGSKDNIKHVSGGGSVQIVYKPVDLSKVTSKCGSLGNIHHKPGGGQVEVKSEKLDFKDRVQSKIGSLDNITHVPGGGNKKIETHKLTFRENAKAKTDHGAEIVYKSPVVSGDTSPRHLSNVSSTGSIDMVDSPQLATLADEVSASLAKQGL
Protocol: (§2) Purified antibodies from hybridomas were captured by protein A/G immobilized on a CM5 sensor chip (GE Healthcare). The wild type and P301S Tau proteins were then injected onto the sensor chip at five different concentrations and the affinity (equilibrium dissociation constant, KD) was calculated according to the manufacturer's instruction.

[3] = target: T1, HVPGG site of Tau (15-mer array …); assay: peptide microarray; HVPGG site of the second repeat region against HKPGG (repeat region 3)
Protocol: as §1

[4] = target: T3, Human Tau 2N4R, wild type, recombinant full length (human, UniProt P10636 2-758); assay: SPR BIAcore T100, mAb captured by protein A/G, Tau injected
T3 construct: Full length 2N4R isoform; monomer in SPR and ELISA; heparin-induced aggregates or seeds in the functional assays; also called Tau441; Tau-441
T3 sequence (P10636 other isoform, or with tags, fused parts or gaps limits assumed): as the sequence (P10636 other isoform, or with tags, fused parts or gaps P301S P301S limits assumed) above, with S300P counted along it
Protocol: (§3) Kinetic analysis of the interaction of the anti-Tau mouse monoclonal antibodies generated in Example 1 with human wild type Tau (2N4R) and the equivalent P301S mutant Tau protein was conducted using a BIAcore™ T100 instrument. Recombinant human full length Tau proteins were expressed in E. coli and then purified by Cellufine™ phosphate affinity chromatography followed by ammonium sulfate precipitation and reverse phase HPLC chromatography.
as §2

[5] = target: T2, P301S mutant human 2N4R Tau, …; assay: as above
Protocol: as §3, §2

[6] = target: T3, Human Tau 2N4R, wild type, recombinant …; assay: SPR BIAcore, biotinylated mAb on streptavidin (CAP) chip, single cycle, 1:1 Langmuir
How it was run: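 Antibodies biotinylated with NHS-PEG4-biotin (5:1 biotin:mAb, 1 h, room temperature) and captured to ~225 RU on a streptavidin chip in PBS-P+/0.2% BSA running buffer. Full-length Tau flowed over in single-cycle mode. ka, kd and KD from 1:1 Langmuir fit.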

[7] = target: T1, HVPGG site of Tau (15-mer array …); assay: peptide microarray; HVPGG site of the fourth repeat region against HKPGG (repeat region 3)
Protocol: as §1

[8] = target: T1, HVPGG site of Tau (15-mer array …); assay: peptide microarray; HVPGG site of the fourth repeat region against HQPGG (repeat region 1)
Protocol: as §1

[9] = target: T4, Tau peptide KDNIKHVSGGGSVQI (human); assay: epitope substitution scanning on peptide chip
T4 construct: Variant peptide of the substitution scan
T4 peptide: KDNIKHVSGGGSVQI
Source text: FIG. 4 illustrates the results of the murine 7G6 antibody epitope substitution scanning of the peptide sequence […] (SEQ ID NO: 26), corresponding to amino acids 294 to 308 of the human 2N4R Tau protein. Each amino acid position of the peptide was replaced by every naturally occurring amino acid possible, printed onto a glass chip, and probed with the ms7G6 antibody. FIG. 4 illustrates the results for select peptides (SEQ ID NOs 38-78, respectively). While ms7G6 antibody binding allows some variation in the second position (valine) of SEQ ID NO: 79, antibody binding is completely dependent on the proline residue of SEQ ID NO: 79. No binding of antibody 7G6 to […] (SEQ ID NO: 59) was observed. The latter is the sequence present in Tau P301S mutant protein.
The ms7G6 anti-Tau antibody was diluted to a concentration of 1 μg/mL in PBS (pH 7.4) containing 0.05% Tween 20 and 10% Rockland blocking buffer (MB-070). The diluted antibody was incubated on the chip for 16 hours at 4° C. with shaking at 140 rpm. Primary antibody was removed and the chip was washed in PBS (pH 7.4)/0.05% Tween 20. […] Fluorescence images were acquired on the LI-COR Odyssey™ Imaging System and the microarray data was finally analyzed using the PepSlide™ Analyser software.

fold preference in binding (average signal intensities) [1]: 41 fold
Fold difference [2]: 11 fold
fold preference in binding (average signal intensities) [3]: 38 fold
Kd [4]: 0.052 nM
Kd [5]: 0.57 nM
Kd [6]: 0.0636 nM
koff [6]: 0.000195 s⁻¹
kon [6]: 3.11e+06 M⁻¹ s⁻¹
fold preference in binding (average signal intensities) [7]: 33 fold
fold preference in binding (average signal intensities) [8]: 35 fold
binding result [9]: no binding (tested: 1 µg/mL)
B1: murine 7G6 antibody (antibody, mouse IgG2b, V domains shown)
VH: QVQLLQPGAELVKPGASVIMSCKASGYTFTTYWITWVKQRPGQGLEWIGDIYPGSSICNYNEKFKSKATLTVDTSSSTAYMQLNSLTSEDSAVYYCAREDGYDAWFAYWGQGTLVTVSA
VL: DVLMTQTPLSLPVSLGDQASISCRSSQSILHSNGNTYLEWYLQKPGQSPKLLICKVSNRFSGVPDRFSGSGSGTDFTLKISRVEAEDLGVYYCFQGSHVPFTFGSGTKLEIK
notes: Mouse IgG2b, kappa, purified from hybridoma; also called ms7G6; mouse 7G6
